PMC13186983
Each block holds one substance with its values, some of them ahead of it.

Tests used:
[1] = biological target: YA4-mutant 26S proteasome, reconstituted, LD655 acceptor-labeled on Rpt1, biotinylated core (S. cerevisiae | yeast) (UniProt P33299)
[2] = biological target: YA6-mutant 26S proteasome, reconstituted, LD655 acceptor-labeled on Rpt1, biotinylated core (S. cerevisiae | yeast) (UniProt P33299)
[3] = biological target: wild-type 26S proteasome, reconstituted, LD655 acceptor-labeled on Rpt1, biotinylated core (S. cerevisiae | yeast) (UniProt P33299)
[4] = biological target: YA4-mutant 26S proteasome, reconstituted, LD655 acceptor-labeled on Rpt1, biotinylated core (S. cerevisiae | yeast) (UniProt P33299); remark: listed apart in the source
[5] = biological target: YA6-mutant 26S proteasome, reconstituted, LD655 acceptor-labeled on Rpt1, biotinylated core (S. cerevisiae | yeast) (UniProt P33299); remark: listed apart in the source
[6] = biological target: wild-type 26S proteasome, reconstituted, LD655 acceptor-labeled on Rpt1, biotinylated core (S. cerevisiae | yeast) (UniProt P33299); remark: listed apart in the source
[7] = biological target: T1, Rpt3 (ATPase subunit of the yeast 26S proteasome) (S. cerevisiae) (UniProt P33298)
T1 sequence: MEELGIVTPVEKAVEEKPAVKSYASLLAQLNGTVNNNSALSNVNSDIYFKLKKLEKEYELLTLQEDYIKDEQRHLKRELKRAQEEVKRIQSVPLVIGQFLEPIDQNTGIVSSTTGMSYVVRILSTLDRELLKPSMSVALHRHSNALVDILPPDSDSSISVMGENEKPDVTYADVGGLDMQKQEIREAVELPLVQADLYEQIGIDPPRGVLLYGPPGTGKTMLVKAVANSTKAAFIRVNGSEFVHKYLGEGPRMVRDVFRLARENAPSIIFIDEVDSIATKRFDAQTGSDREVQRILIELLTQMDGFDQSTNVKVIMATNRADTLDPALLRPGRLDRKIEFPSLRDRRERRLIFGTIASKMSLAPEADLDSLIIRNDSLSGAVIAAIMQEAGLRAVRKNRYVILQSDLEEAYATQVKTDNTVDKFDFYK

[8] = biological target: T1, Rpt3 (ATPase subunit of the yeast 26S proteasome) (S. cerevisiae); remark: listed apart in the source

Substance: ubiquitinated titin I27^V15P substrate, LD555 donor-labeled (from UniProt P0CG63 1-76)
combined time constant for substrate binding, tail insertion and engagement; bulk stopped-flow FRET, Cy3-labeled proteasome with oPA, 2 µM Cy5-labeled substrate, 25 °C [1]: 14.3 s | combined time constant for substrate binding, tail insertion and engagement; bulk stopped-flow FRET, Cy3-labeled proteasome with oPA, 2 µM Cy5-labeled substrate, 25 °C [2]: 18 s | combined time constant for substrate binding, tail insertion and engagement; bulk stopped-flow FRET, Cy3-labeled proteasome with oPA, 2 µM Cy5-labeled substrate, 25 °C [3]: 6.8 s

Substance: ubiquitinated titin I27 substrate, LD555 donor-labeled (from UniProt P0CG63 1-76)
frequency of terminal release of titin I27 during the unfolding dwell, single-molecule FRET [4]: 37.5% | frequency of terminal release of titin I27 during the unfolding dwell, single-molecule FRET [5]: 33.3% | frequency of terminal release of titin I27 during the unfolding dwell, single-molecule FRET [6]: 18.1%

Substance: Rpt6 E140A (from UniProt Q01939 1-405) (natural protein)
basal ATPase rate of the reconstituted proteasome with Rpt6 E140A (NADH-coupled assay) [7]: 108 min⁻¹

The remaining lines, values ahead:

basal ATPase rate of the reconstituted YA6 proteasome (NADH-coupled assay) [8]: 101 min⁻¹
Substance: Rpt6 with the pore-1 loop Tyr to Ala mutation (YA6) (from UniProt Q01939 1-405) (natural protein)

basal ATPase rate of the reconstituted proteasome with Rpt6 K141A (NADH-coupled assay) [7]: 87 min⁻¹
Substance: Rpt6 K141A (from UniProt Q01939 1-405) (natural protein)
